Results: patent US9187525B2, “Methods of treating ophthalmic diseases using NPR-B agonists” (Shire Orphan Therapies GmbH, dated 2015)
Numbered stars: 1 amine (or outer) side, 2 acyl side, 3 side chain; on linkers, the order of the positions; unused ones are H or OH. Square brackets hold non-standard residues; d marks the D form. * marks the point of attachment. Ebe = (R)-2-amino-3-(methylsulfanyl)propanoic acid, CSC[C@H](N[*:1])C(=O)[*:2]; 6059 = 3-(Octane-1-sulfinyl)-propionic acid, CCCCCCCCS(=O)CCC(=O)*; 6057 = 3-Octylsulfanyl-propionic acid, CCCCCCCCSCCC(=O)*; 6058 = 7-Butylsulfanyl-heptanoic acid, CCCCSCCCCCCC(=O)*; 6014 = (E)-dodec-2-enoic acid, CCCCCCCCC/C=C/C(=O)*; 6056 = (2S)-2-octylcyclopropanecarboxylic acid; Dodecenoyl(5Z) = CCCCCC/C=C\CCCC(=O)*; Hyp = O=C(O)[C@@H]1C[C@@H](O)CN1; NMeF = CN[C@@H](Cc1ccccc1)C(=O)O; tBuAla = CC(C)(C)C[C@H](N)C(=O)O; dAgp = N=C(N)NC[C@@H](N)C(=O)O; KM‑116‑167 = not defined here; NMeL = CN[C@@H](CC(C)C)C(=O)O; NMeK = CN[C@@H](CCCCN)C(=O)O; Tle = CC(C)(C)[C@H](N)C(=O)O; Lauroyl = CCCCCCCCCCCC(=O)*; 3Amb = NCc1cccc(C(=O)O)c1; NMeA = CN[C@@H](C)C(=O)O; Octanoyl = CCCCCCCC(=O)*; 6054 = not defined here; Nva = CCC[C@H](N)C(=O)O; Hexanoyl = CCCCCC(=O)*; GABA = NCCCC(=O)O; Sar = CNCC(=O)O

Target: T1, natriuretic peptide receptor-B (human)
T1 chain: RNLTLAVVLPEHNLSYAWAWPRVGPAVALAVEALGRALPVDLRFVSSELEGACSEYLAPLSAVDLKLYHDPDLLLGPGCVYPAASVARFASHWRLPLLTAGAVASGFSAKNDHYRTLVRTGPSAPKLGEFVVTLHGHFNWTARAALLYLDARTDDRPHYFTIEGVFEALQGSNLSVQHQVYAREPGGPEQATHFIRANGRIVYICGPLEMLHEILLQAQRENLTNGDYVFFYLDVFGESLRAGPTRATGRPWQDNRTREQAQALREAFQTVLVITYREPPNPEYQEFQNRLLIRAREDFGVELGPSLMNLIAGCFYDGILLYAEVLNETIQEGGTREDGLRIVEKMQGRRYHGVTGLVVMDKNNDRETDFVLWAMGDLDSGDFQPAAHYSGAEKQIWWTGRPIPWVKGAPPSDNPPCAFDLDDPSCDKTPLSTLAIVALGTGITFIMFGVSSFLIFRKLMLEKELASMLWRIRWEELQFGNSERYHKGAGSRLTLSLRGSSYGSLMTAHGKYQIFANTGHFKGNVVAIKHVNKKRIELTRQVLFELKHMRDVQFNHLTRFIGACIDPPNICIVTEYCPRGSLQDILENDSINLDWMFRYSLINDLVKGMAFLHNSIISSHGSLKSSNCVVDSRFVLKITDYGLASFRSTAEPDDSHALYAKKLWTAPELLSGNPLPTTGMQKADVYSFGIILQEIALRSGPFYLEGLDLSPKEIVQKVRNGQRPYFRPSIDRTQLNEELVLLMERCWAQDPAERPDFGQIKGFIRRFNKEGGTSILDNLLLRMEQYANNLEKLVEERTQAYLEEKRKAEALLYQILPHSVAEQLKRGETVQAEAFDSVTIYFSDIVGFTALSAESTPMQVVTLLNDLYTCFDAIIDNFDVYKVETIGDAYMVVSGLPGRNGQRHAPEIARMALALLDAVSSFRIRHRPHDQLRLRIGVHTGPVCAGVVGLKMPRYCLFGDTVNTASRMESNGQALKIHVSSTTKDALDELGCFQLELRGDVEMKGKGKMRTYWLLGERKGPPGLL
Test: cell-based or functional assay

B1: JAL-1224 (peptide)
peptide: Octanoyl-AFRL[Hyp]IDRI-NH2
modifications: not fully specified (some residues); printed as Occ-ala-Phe-arg-Leu-Hyp-Ile-Asp-Arg-Ile-NH2
- EC50 group, cGMP in GTM-3 cells: ≤ 5 µM

B2: JAL-1245 (peptide)
peptide: Lauroyl-FLL[Hyp][NMeL]DRI-NH2
modifications: not fully specified (some residues); printed as 832-Phe-leu-Leu-Hyp-Nml-Asp-Arg-Ile-NH2
- EC50 group, cGMP in GTM-3 cells: ≤ 5 µM

B3: JAL-1157_02 (peptide)
peptide: Octanoyl-XF[dR]L[Hyp]LDRI-NH2
modifications: not fully specified (some residues); printed as Oct-pip-Phe-arg-Leu-Hyp-Leu-Asp-Arg-Ile-NH2
- EC50 group, cGMP in GTM-3 cells: ≤ 15 µM

B4: JAL-1214 (peptide)
peptide: Lauroyl-FRL[Hyp][NMeL]DRI-NH2
modifications: not fully specified (some residues); printed as 832-Phe-arg-Leu-Hyp-Nml-Asp-Arg-Ile-NH2
- EC50 group, cGMP in GTM-3 cells: ≤ 5 µM

B5: JAL-1244 (peptide)
peptide: Lauroyl-[NMeF]RL[Hyp][NMeL]DRI-NH2
modifications: not fully specified (some residues); printed as 832-Nmf-arg-Leu-Hyp-Nml-Asp-Arg-Ile-NH2
- EC50 group, cGMP in GTM-3 cells: ≤ 15 µM

B6: JAL-1243 (peptide)
peptide: 6059-FRL[Hyp][NMeL]DRI-NH2
modifications: not fully specified (some residues); printed as 6059-Phe-arg-Leu-Hyp-Nml-Asp-Arg-Ile-NH2
- EC50 group, cGMP in GTM-3 cells: ≤ 5 µM

B7: JAL-1240 (peptide)
peptide: 6056-FRL[Hyp][NMeL]DRI-NH2
modifications: not fully specified (some residues); printed as 6056-Phe-arg-Leu-Hyp-Nml-Asp-Arg-Ile-NH2
- EC50 group, cGMP in GTM-3 cells: ≤ 5 µM

B8: JAL-1159 (peptide)
peptide: Octanoyl-AFR[KM‑116‑167][NMeL]DRI-NH2
modifications: not fully specified (some residues); printed as Occ-ala-Phe-arg-(KM-116-167)-Nml-Asp-Arg-Ile-NH2; reading uncertain
- EC50 group, cGMP in GTM-3 cells: ≤ 15 µM

B9: JAL-1238 (peptide)
peptide: {Dodecenoyl(5Z)}-FRL[Hyp][NMeL]DRI-NH2
modifications: not fully specified (some residues); printed as 6015-Phe-arg-Leu-Hyp-Nml-Asp-Arg-Ile-NH2
- EC50 group, cGMP in GTM-3 cells: ≤ 5 µM

B10: JAL-1228 (peptide)
peptide: Octanoyl-AFRLK[NMeL]DRI-NH2
modifications: not fully specified (some residues); printed as Occ-ala-Phe-arg-Leu-Lys-Nml-Asp-Arg-Ile-NH2
- EC50 group, cGMP in GTM-3 cells: ≤ 5 µM

B11: JAL-1232 (peptide)
peptide: Octanoyl-AFR[Nva][Hyp][NMeL]DRI-NH2
modifications: not fully specified (some residues); printed as Occ-ala-Phe-arg-Nva-Hyp-Nml-Asp-Arg-Ile-NH2
- EC50 group, cGMP in GTM-3 cells: ≤ 5 µM

B12: JAL-1239 (peptide)
peptide: 6054-FRL[Hyp][NMeL]DRI-NH2
modifications: not fully specified (some residues); printed as 6054-Phe-arg-Leu-Hyp-Nml-Asp-Arg-Ile-NH2; reading uncertain
- EC50 group, cGMP in GTM-3 cells: ≤ 5 µM

Binder: Octanoyl-[dA]F[dAgp]LPLDRI-NH2 [JAL-1122]
- EC50 group, cGMP in GTM-3 cells: ≤ 5 µM

Binder: Hexanoyl-[Ebe][dA]FGLKLDRI-NH2 [JAL-0541]
- EC50 group, cGMP in GTM-3 cells: ≤ 15 µM

B13: JAL-1226 (peptide)
peptide: Octanoyl-AFRL[Hyp][Tle]DRI-NH2
modifications: not fully specified (some residues); printed as Occ-ala-Phe-arg-Leu-Hyp-Tbg-Asp-Arg-Ile-NH2
- EC50 group, cGMP in GTM-3 cells: ≤ 15 µM

B14: JAL-1237 (peptide)
peptide: 6014-FRL[Hyp][NMeL]DRI-NH2
modifications: not fully specified (some residues); printed as 6014-Phe-arg-Leu-Hyp-Nml-Asp-Arg-Ile-NH2
- EC50 group, cGMP in GTM-3 cells: ≤ 5 µM

B15: JAL-1241 (peptide)
peptide: 6057-FRL[Hyp][NMeL]DRI-NH2
modifications: not fully specified (some residues); printed as 6057-Phe-arg-Leu-Hyp-Nml-Asp-Arg-Ile-NH2
- EC50 group, cGMP in GTM-3 cells: ≤ 5 µM

B16: JAL-1227 (peptide)
peptide: Octanoyl-AFRL[Hyp][Ebe]DRI-NH2
modifications: not fully specified (some residues); printed as Occ-ala-Phe-arg-Leu-Hyp-Ebe-Asp-Arg-Ile-NH2
- EC50 group, cGMP in GTM-3 cells: ≤ 5 µM

B17: JAL-1246 (peptide)
peptide: Lauroyl-FRL[Hyp]LDRI-NH2
modifications: not fully specified (some residues); printed as 832-Phe-arg-Leu-Hyp-Leu-Asp-Arg-Ile-NH2
- EC50 group, cGMP in GTM-3 cells: ≤ 15 µM

B18: JAL-1231 (peptide)
peptide: Octanoyl-AFRL[Sar][NMeL]DRI-NH2
modifications: not fully specified (some residues); printed as Occ-ala-Phe-arg-Leu-Sar-Nml-Asp-Arg-Ile-NH2
- EC50 group, cGMP in GTM-3 cells: ≤ 5 µM

Binder: Octanoyl-[dA]F[dR]L[Hyp]LDRI-NH2 [JAL-1156_02]
- EC50 group, cGMP in GTM-3 cells: ≤ 5 µM

B19: JAL-1233 (peptide)
peptide: Octanoyl-AFR[Ebe][Hyp][NMeL]DRI-NH2
modifications: not fully specified (some residues); printed as Occ-ala-Phe-arg-Ebe-Hyp-Nml-Asp-Arg-Ile-NH2
- EC50 group, cGMP in GTM-3 cells: ≤ 5 µM

B20: JAL-1229 (peptide)
peptide: Octanoyl-AFRL[NMeK][NMeL]DRI-NH2
modifications: not fully specified (some residues); printed as Occ-ala-Phe-arg-Leu-Nmk-Nml-Asp-Arg-Ile-NH2
- EC50 group, cGMP in GTM-3 cells: ≤ 5 µM

B21: JAL-0542 (peptide)
peptide: Hexanoyl-[GABA]FGLKLDRIS[Ebe]-NH2
SMILES: CCCCCC(=O)NCCCC(=O)N[C@@H](Cc1ccccc1)C(=O)NCC(=O)N[C@@H](CC(C)C)C(=O)N[C@@H](CCCCN)C(=O)N[C@@H](CC(C)C)C(=O)N[C@@H](CC(=O)O)C(=O)N[C@@H](CCCNC(=N)N)C(=O)N[C@H](C(=O)N[C@@H](CO)C(=O)N[C@@H](CSC)C(N)=O)[C@@H](C)CC
- EC50 group, cGMP in GTM-3 cells: ≤ 15 µM

B22: JAL-1230 (peptide)
peptide: Octanoyl-AFRL[NMeA][NMeL]DRI-NH2
modifications: not fully specified (some residues); printed as Occ-ala-Phe-arg-Leu-Nma-Nml-Asp-Arg-Ile-NH2
- EC50 group, cGMP in GTM-3 cells: ≤ 15 µM

B23: JAL-0543 (peptide)
peptide: Hexanoyl-[3Amb]FGLKLDRIS[Ebe]-NH2
SMILES: CCCCCC(=O)NCc1cccc(C(=O)N[C@@H](Cc2ccccc2)C(=O)NCC(=O)N[C@@H](CC(C)C)C(=O)N[C@@H](CCCCN)C(=O)N[C@@H](CC(C)C)C(=O)N[C@@H](CC(=O)O)C(=O)N[C@@H](CCCNC(=N)N)C(=O)N[C@H](C(=O)N[C@@H](CO)C(=O)N[C@@H](CSC)C(N)=O)[C@@H](C)CC)c1
- EC50 group, cGMP in GTM-3 cells: ≤ 15 µM

B24: JAL-1242 (peptide)
peptide: 6058-FRL[Hyp][NMeL]DRI-NH2
modifications: not fully specified (some residues); printed as 6058-Phe-arg-Leu-Hyp-Nml-Asp-Arg-Ile-NH2
- EC50 group, cGMP in GTM-3 cells: ≤ 5 µM

B25: JAL-1225 (peptide)
peptide: Octanoyl-AFRL[Hyp][tBuAla]DRI-NH2
modifications: not fully specified (some residues); printed as Occ-ala-Phe-arg-Leu-Hyp-Npg-Asp-Arg-Ile-NH2
- EC50 group, cGMP in GTM-3 cells: ≤ 1 µM
